T1: MADWLTFQKKHI
T1 chain: MADWLTFQKKHI

T2: MADYLT
T2 chain: MADYLT

T3: MADY
T3 chain: MADY

T4: MQDWLTFQKKHI
T4 chain: MQDWLTFQKKHI

T5: MQDYLT
T5 chain: MQDYLT

B1: MetAP-GTG (protein)
chain: AISIKTPEDIEKMRVAGRLAAEVLEMIEPYVKPGVSTGELDRICNDYIVNEQHAVSACLGYHGYPKSVCISINEVVCHGIPDDAKLLKDGDIVNIDVTVIKDGFHGDTSKMFIVGKPTIMGERLCRITQESLYLALRMVKPGINLREIGAAIQKFVEAEGFSVVREGCGHGIGRGFHEEPQVLHYDSRETNVVLKPGMTFTIEPTVNAGKKEIRTMKDGWTVKTKDRSLSAGYEHTIVVTDNGCEILTLRKDDTIPAIISHDE
B2: MetAP-M206G-Q233G (protein)
chain: B1 chain with G167Y, T205G
B3: MetAP-M206T-Q233G (protein)
chain: B1 chain with G167Y
B4: MetAP-YMQ (wild type E. coli methionine aminopeptidase) (protein)
chain: B1 chain with G167Y, T205M, G232Q
B5: MetAP-M206T-Q233T (protein)
chain: B1 chain with G167Y, G232T

Residue numbers refer to the chain shown, from its start. Names may count otherwise.

One series concerns the target T1, MADWLTFQKKHI
B1 returned a Specific activity (unit/mg) of 9.8 unit/mg.

As to B2, the Specific activity (unit/mg) was 3.28 unit/mg.

For B3, the Specific activity (unit/mg) stood at 73 unit/mg.

The protein B4 yielded a Specific activity (unit/mg) of 85 unit/mg.

The target in the next series is T2, MADYLT.
With B1, the Specific activity (unit/mg) was 2.5 unit/mg.

Take B2: the Specific activity (unit/mg) was found to be 0.29 unit/mg.

Consider B5, for which the Specific activity (unit/mg) was found to be 0.12 unit/mg.

The protein B3 registered a Specific activity (unit/mg) of 116 unit/mg.

As to B4, the Specific activity (unit/mg) came to 138 unit/mg.

The next series has as its target T3, MADY.
For B1, the Specific activity (unit/mg) stood at 1.68 unit/mg.

As for B2, the Specific activity (unit/mg) worked out at 0.51 unit/mg.

Protein B5 had a Specific activity (unit/mg) of 0.38 unit/mg.

Regarding B3, the Specific activity (unit/mg) was determined as 72 unit/mg.

In turn, B4 came in with a Specific activity (unit/mg) of 138 unit/mg.

The target of another series is T4, MQDWLTFQKKHI
Consider B1, for which the Specific activity (unit/mg) worked out at 4.24 unit/mg and the “specific activity relative to that for MADWLTFQKKHI” value is given as “The specific activity of MetAP-GTG on the dodecapeptide MQDWLTFQKKHI is 43% of that for MADWLTFQKKHI”.

Take B2: the Specific activity (unit/mg) came to 0.5 unit/mg.

As to B3, the Specific activity (unit/mg) worked out at 0.59 unit/mg.

B4 showed a Specific activity (unit/mg) of 0.62 unit/mg.

In the next series the target is T5, MQDYLT.
B1: the Specific activity (unit/mg) is 0.23 unit/mg.

Take B2: the Specific activity (unit/mg) is 0.29 unit/mg.

Consider B5, for which the Specific activity (unit/mg) came out at 0.13 unit/mg.

The protein B3 displayed a Specific activity (unit/mg) of 0.42 unit/mg.

As to B4, the Specific activity (unit/mg) turned out to be 0.43 unit/mg.
